Assay results from patent US12295987B2, “Method of using a GIP/GLP1 co-agonist for diabetes” (Eli Lilly and Company, priority 2018, dated 2025).
Numbered stars: 1 amine (or outer) side, 2 acyl side, 3 side chain; on linkers, the order of the positions; unused ones are H or OH. Square brackets hold non-standard residues; d marks the D form. Side chains are listed from the residue outwards. Ends that are not written are not given here. * marks the point of attachment. C20 diacid = O=C(O)CCCCCCCCCCCCCCCCCCC(=O)*; γGlu = O=C(O)[C@H](CCC(=O)[*:2])N[*:1]; AEEA = NCCOCCOCC(=O)O; Aib = CC(C)(N)C(=O)O

Target: T1, human gastric inhibitory peptide receptor (hGIPR) (Homo sapiens, UniProt P48546)
T1 construct: expressed in transfected cells; host or cells: HEK293
T1 sequence (P48546 22-466): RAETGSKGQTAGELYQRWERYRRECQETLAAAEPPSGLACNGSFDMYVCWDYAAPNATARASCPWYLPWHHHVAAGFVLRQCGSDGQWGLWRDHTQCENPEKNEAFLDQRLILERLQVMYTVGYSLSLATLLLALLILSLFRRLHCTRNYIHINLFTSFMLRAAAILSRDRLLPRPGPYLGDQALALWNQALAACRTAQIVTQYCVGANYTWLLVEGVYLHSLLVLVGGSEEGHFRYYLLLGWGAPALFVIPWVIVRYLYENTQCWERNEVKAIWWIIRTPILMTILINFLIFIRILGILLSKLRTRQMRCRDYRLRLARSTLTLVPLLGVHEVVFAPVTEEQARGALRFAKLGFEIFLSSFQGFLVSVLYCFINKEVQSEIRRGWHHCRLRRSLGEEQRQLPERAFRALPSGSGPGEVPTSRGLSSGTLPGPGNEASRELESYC
Assay: cAMP pharmacological functional assay in presence of 0.1% casein, hGIPR
Type: cell-based
Conditions: ratio of hGIPR to hGLP1R cAMP EC50 ratios

First: Y-Aib-EGTFTSDYSILLDKIAQ-Aib-AFIEYLIEGGPK((2-[2-(2-Amino-ethoxy)-ethoxy]-acetyl)2-(γGlu)-CO—(CH2)18—CO2H)SGAPPPS-NH2 (Y[Aib]EGTFTSDYSILLDKIAQ[Aib]AFIEYLIEGGPK([AEEA-AEEA-γGlu-C20 diacid])SGAPPPS-NH2; N-terminus assumed; SMILES CC[C@H](C)[C@H](NC(=O)[C@H](CCCCN)NC(=O)[C@H](CC(=O)O)NC(=O)[C@H](CC(C)C)NC(=O)[C@H](CC(C)C)NC(=O)[C@@H](NC(=O)[C@H](CO)NC(=O)[C@H](Cc1ccc(O)cc1)NC(=O)[C@H](CC(=O)O)NC(=O)[C@H](CO)NC(=O)[C@@H](NC(=O)[C@H](Cc1ccccc1)NC(=O)[C@@H](NC(=O)CNC(=O)[C@H](CCC(=O)O)NC(=O)C(C)(C)NC(=O)[C@@H](N)Cc1ccc(O)cc1)[C@@H](C)O)[C@@H](C)O)[C@@H](C)CC)C(=O)N[C@@H](C)C(=O)N[C@@H](CCC(N)=O)C(=O)NC(C)(C)C(=O)N[C@@H](C)C(=O)N[C@@H](Cc1ccccc1)C(=O)N[C@H](C(=O)N[C@@H](CCC(=O)O)C(=O)N[C@@H](Cc1ccc(O)cc1)C(=O)N[C@@H](CC(C)C)C(=O)N[C@H](C(=O)N[C@@H](CCC(=O)O)C(=O)NCC(=O)NCC(=O)N1CCC[C@H]1C(=O)N[C@@H](CCCCNC(=O)COCCOCCNC(=O)COCCOCCNC(=O)CC[C@H](NC(=O)CCCCCCCCCCCCCCCCCCC(=O)O)C(=O)O)C(=O)N[C@@H](CO)C(=O)NCC(=O)N[C@@H](C)C(=O)N1CCC[C@H]1C(=O)N1CCC[C@H]1C(=O)N1CCC[C@H]1C(=O)N[C@@H](CO)C(N)=O)[C@@H](C)CC)[C@@H](C)CC) [Peptide 41]
Second: Y-Aib-EGT-αMeF-TSDYSI-αMeL-LDEK((2-[2-(2-Amino-ethoxy)-ethoxy]-acetyl)2-(γGlu)-CO—(CH2)18—CO2H)AQ-Aib-EFI-(D-Glu)-YLIEGGPSSGAPPPS-NH2 (YXEGTXTSDYSIXLDEKAQXEFIXYLIEGGPSSGAPPPS; Aib, αMeF, αMeL, D-Glu; lipidated K; amide; (2)..(2) Xaa at position 2 is Aib; (6)..(6) Xaa at position 6 is alpha-methyl-Phe; (13)..(13) Xaa at position 13 is alpha-methyl-Leu; MOD_RES (17)..(17) Lys at position 17 is chemically modified by conjugation of the epsilon-amino group of the Lys side chain with (2-[2-(2-amino-ethoxy)-ethoxy]-acetyl)2-(gamma-Glu)-CO-(CH2)18- CO2H; (20)..(20) Xaa at position 20 is Aib; (24)..(24) Xaa at position 2) [Peptide 227]
The “[hGIPR/hGLP1R] EC50 Ratio” value of the first is higher: 10.00 for the first, 4.42 for the second.

First: Y-Aib-EGT-αMeF(2F)-TSD-4Pal-SI-αMeL-LDKK((2-[2-(2-Amino-ethoxy)-ethoxy]-acetyl)2-(γGlu)-CO—(CH2)18—CO2H)AQ-Aib-EFI-(D-Glu)-YLIEGGPSSGAPPPS-NH2 (YXEGTXTSDXSIXLDKKAQXEFIXYLIEGGPSSGAPPPS; Aib, αMeF(2F), 4Pal, αMeL, D-Glu; lipidated K; amide; (2)..(2) Xaa at position 2 is Aib; (6)..(6) Xaa at position 6 is alpha-methyl-Phe(2F); (10)..(10) Xaa at position 10 is 4Pal; (13)..(13) Xaa at position 13 is alpha-methyl-Leu; MOD_RES (17)..(17) Lys at position 17 is chemically modified by conjugation of the epsilon-amino group of the Lys side chain with (2-[2-(2-amino-ethoxy)-ethoxy]-acetyl)2-(gamma-Glu)-CO-(CH2)18- CO2H; (20)..(20) Xaa at posit) [Peptide 203]
Second: Y-Aib-EGT-αMeF-TSDYSI-αMeL-LDEK((2-[2-(2-Amino-ethoxy)-ethoxy]-acetyl)2-(γGlu)-CO—(CH2)18—CO2H)AQ-Aib-AFIEYLIEGGPSSGAPPPS-NH2 (YXEGTXTSDYSIXLDEKAQXAFIEYLIEGGPSSGAPPPS; Aib, αMeF, αMeL; acylated lysine C20 diacid; amide; (2)..(2) Xaa at position 2 is Aib; (6)..(6) Xaa at position 6 is alpha-methyl-Phe; (13)..(13) Xaa at position 13 is alpha-methyl-Leu; MOD_RES (17)..(17) Lys at position 17 is chemically modified by conjugation of the epsilon-amino group of the Lys side chain with (2-[2-(2-amino-ethoxy)-ethoxy]-acetyl)2-(gamma-Glu)-CO-(CH2)18- CO2H; (20)..(20) Xaa at position 20 is Aib; MOD_RES (39)..(39) Ser at po) [Peptide 115]
The “[hGIPR/hGLP1R] EC50 Ratio” value of the first is higher: 7.38 for the first, 2.49 for the second.

Compared with “Y-Aib-EGTFTSDYSILLDK((2-[2-(2-Amino-ethoxy)-ethoxy]-acetyl)2-(γGlu)-CO—(CH2)18—CO2H)IAQ-Aib-AFIEYLIEGGPSSGAPPPS-NH2 (Y[Aib]EGTFTSDYSILLDK([AEEA-AEEA-γGlu-C20 diacid])IAQ[Aib]AFIEYLIEGGPSSGAPPPS-NH2; N-terminus assumed; SMILES CC[C@H](C)[C@H](NC(=O)[C@H](CCCCNC(=O)COCCOCCNC(=O)COCCOCCNC(=O)CC[C@H](NC(=O)CCCCCCCCCCCCCCCCCCC(=O)O)C(=O)O)NC(=O)[C@H](CC(=O)O)NC(=O)[C@H](CC(C)C)NC(=O)[C@H](CC(C)C)NC(=O)[C@@H](NC(=O)[C@H](CO)NC(=O)[C@H](Cc1ccc(O)cc1)NC(=O)[C@H](CC(=O)O)NC(=O)[C@H](CO)NC(=O)[C@@H](NC(=O)[C@H](Cc1ccccc1)NC(=O)[C@@H](NC(=O)CNC(=O)[C@H](CCC(=O)O)NC(=O)C(C)(C)NC(=O)[C@@H](N)Cc1ccc(O)cc1)[C@@H](C)O)[C@@H](C)O)[C@@H](C)CC)C(=O)N[C@@H](C)C(=O)N[C@@H](CCC(N)=O)C(=O)NC(C)(C)C(=O)N[C@@H](C)C(=O)N[C@@H](Cc1ccccc1)C(=O)N[C@H](C(=O)N[C@@H](CCC(=O)O)C(=O)N[C@@H](Cc1ccc(O)cc1)C(=O)N[C@@H](CC(C)C)C(=O)N[C@H](C(=O)N[C@@H](CCC(=O)O)C(=O)NCC(=O)NCC(=O)N1CCC[C@H]1C(=O)N[C@@H](CO)C(=O)N[C@@H](CO)C(=O)NCC(=O)N[C@@H](C)C(=O)N1CCC[C@H]1C(=O)N1CCC[C@H]1C(=O)N1CCC[C@H]1C(=O)N[C@@H](CO)C(N)=O)[C@@H](C)CC)[C@@H](C)CC) [Peptide 29]”, “Y-Aib-EGTFTSDYSILLDKK((2-[2-(2-Amino-ethoxy)-ethoxy]-acetyl)2-(γGlu)-CO—(CH2)18—CO2H)AQ-Aib-AFI-(D-Glu)-YLIEGGPSSGAPPPS-NH2 (YXEGTFTSDYSILLDKKAQXAFIXYLIEGGPSSGAPPPS; Aib, D-Glu, lipidated Lys, C-terminal amide; (2)..(2) Xaa at position 2 is Aib; MOD_RES (17)..(17) Lys at position 17 is chemically modified by conjugation of the epsilon-amino group of the Lys side chain with (2-[2-(2-amino-ethoxy)-ethoxy]-acetyl)2-(gamma-Glu)-CO-(CH2)18- CO2H; (20)..(20) Xaa at position 20 is Aib; (24)..(24) Xaa at position 24 is D-Glu; MOD_RES (39)..(39) Ser at position 39 is amidated) [Peptide 84]” is higher in “[hGIPR/hGLP1R] EC50 Ratio” value: 7.99 for the first, 9.19 for the second.

First: Y-Aib-EGT-αMeF(2F)-TSDVSI-αMeL-LD-Orn-K((2-[2-(2-Amino-ethoxy)-ethoxy]-acetyl)2-(γGlu)-CO—(CH2)16—CO2H)AQ-Aib-TFI-(D-Glu)-αMeY-LIEGGPSSGAPPPS-NH2 (YXEGTXTSDVSIXLDXKAQXTFIXXLIEGGPSSGAPPPS; Aib, Orn, αMe residues, lipidated Lys, D-Glu, amide; (2)..(2) Xaa at position 2 is Aib; (6)..(6) Xaa at position 6 is alpha-methyl-Phe(2F); (13)..(13) Xaa at position 13 is alpha-methyl-Leu; (16)..(16) Xaa at position 16 is Orn; MOD_RES (17)..(17) Lys at position 17 is chemically modified by conjugation of the epsilon-amino group of the Lys side chain with (2-[2-(2-amino-ethoxy)-ethoxy]-acetyl)2-(gamma-Glu)-CO-(CH2)16- CO2H; (20)..(20) Xaa at positi) [Peptide 241]
Second: Y-Aib-EGT-αMeF(2F)-TSDHSI-αMeL-LD-Orn-K((2-[2-(2-Amino-ethoxy)-ethoxy]-acetyl)2-(γGlu)-CO—(CH2)18—CO2H)AQ-Aib-TFI-(D-Glu)-YLIEGGPSSGAPPPS-NH2 (YXEGTXTSDHSIXLDXKAQXTFIXYLIEGGPSSGAPPPS; Aib, αMeF(2F), αMeL, Orn, D-Glu; lipidated K; amide; (2)..(2) Xaa at position 2 is Aib; (6)..(6) Xaa at position 6 is alpha-methyl-Phe(2F); (13)..(13) Xaa at position 13 is alpha-methyl-Leu; (16)..(16) Xaa at position 16 is Orn; MOD_RES (17)..(17) Lys at position 17 is chemically modified by conjugation of the epsilon-amino group of the Lys side chain with (2-[2-(2-amino-ethoxy)-ethoxy]-acetyl)2-(gamma-Glu)-CO-(CH2)18- CO2H; (20)..(20) Xaa at positi) [Peptide 171]
The “[hGIPR/hGLP1R] EC50 Ratio” value of the first is lower: 3.77 for the first, 7.73 for the second.
